Assay results: patent US20180086849A1 (Hoffmann-La Roche, published 2018)

Legend:
Assay in all cases: cell-based or functional assay
[1] = biological target: T1, human MCSP (Melanoma-associated Chondroitin Sulfate Proteoglycan) on cells (human, UniProt Q6UVK1 30-2322)
[2] = biological target: T1, human MCSP (Melanoma-associated …); remark: listed apart in the source
[3] = biological target: T2, human CEA (Carcinoembryonic antigen) on cells (human, UniProt P06731 35-685)
T2 sequence (looked up): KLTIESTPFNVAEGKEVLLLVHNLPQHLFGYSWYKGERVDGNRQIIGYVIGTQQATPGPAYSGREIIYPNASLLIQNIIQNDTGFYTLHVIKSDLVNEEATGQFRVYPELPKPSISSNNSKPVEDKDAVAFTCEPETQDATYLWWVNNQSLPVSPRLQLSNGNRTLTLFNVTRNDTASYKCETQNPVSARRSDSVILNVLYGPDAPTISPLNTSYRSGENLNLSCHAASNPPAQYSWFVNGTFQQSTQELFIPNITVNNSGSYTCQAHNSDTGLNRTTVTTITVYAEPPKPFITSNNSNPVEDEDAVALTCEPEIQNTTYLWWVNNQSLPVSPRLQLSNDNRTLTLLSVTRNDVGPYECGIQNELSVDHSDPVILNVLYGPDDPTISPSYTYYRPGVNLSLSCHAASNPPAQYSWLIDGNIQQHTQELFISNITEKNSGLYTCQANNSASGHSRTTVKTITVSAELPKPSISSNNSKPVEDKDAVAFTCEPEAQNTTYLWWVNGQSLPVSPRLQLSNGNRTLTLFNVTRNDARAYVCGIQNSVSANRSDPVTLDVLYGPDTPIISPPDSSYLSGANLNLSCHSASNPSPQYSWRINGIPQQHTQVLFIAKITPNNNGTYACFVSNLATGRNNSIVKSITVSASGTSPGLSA

T1 sequence (Q6UVK1 30-2322): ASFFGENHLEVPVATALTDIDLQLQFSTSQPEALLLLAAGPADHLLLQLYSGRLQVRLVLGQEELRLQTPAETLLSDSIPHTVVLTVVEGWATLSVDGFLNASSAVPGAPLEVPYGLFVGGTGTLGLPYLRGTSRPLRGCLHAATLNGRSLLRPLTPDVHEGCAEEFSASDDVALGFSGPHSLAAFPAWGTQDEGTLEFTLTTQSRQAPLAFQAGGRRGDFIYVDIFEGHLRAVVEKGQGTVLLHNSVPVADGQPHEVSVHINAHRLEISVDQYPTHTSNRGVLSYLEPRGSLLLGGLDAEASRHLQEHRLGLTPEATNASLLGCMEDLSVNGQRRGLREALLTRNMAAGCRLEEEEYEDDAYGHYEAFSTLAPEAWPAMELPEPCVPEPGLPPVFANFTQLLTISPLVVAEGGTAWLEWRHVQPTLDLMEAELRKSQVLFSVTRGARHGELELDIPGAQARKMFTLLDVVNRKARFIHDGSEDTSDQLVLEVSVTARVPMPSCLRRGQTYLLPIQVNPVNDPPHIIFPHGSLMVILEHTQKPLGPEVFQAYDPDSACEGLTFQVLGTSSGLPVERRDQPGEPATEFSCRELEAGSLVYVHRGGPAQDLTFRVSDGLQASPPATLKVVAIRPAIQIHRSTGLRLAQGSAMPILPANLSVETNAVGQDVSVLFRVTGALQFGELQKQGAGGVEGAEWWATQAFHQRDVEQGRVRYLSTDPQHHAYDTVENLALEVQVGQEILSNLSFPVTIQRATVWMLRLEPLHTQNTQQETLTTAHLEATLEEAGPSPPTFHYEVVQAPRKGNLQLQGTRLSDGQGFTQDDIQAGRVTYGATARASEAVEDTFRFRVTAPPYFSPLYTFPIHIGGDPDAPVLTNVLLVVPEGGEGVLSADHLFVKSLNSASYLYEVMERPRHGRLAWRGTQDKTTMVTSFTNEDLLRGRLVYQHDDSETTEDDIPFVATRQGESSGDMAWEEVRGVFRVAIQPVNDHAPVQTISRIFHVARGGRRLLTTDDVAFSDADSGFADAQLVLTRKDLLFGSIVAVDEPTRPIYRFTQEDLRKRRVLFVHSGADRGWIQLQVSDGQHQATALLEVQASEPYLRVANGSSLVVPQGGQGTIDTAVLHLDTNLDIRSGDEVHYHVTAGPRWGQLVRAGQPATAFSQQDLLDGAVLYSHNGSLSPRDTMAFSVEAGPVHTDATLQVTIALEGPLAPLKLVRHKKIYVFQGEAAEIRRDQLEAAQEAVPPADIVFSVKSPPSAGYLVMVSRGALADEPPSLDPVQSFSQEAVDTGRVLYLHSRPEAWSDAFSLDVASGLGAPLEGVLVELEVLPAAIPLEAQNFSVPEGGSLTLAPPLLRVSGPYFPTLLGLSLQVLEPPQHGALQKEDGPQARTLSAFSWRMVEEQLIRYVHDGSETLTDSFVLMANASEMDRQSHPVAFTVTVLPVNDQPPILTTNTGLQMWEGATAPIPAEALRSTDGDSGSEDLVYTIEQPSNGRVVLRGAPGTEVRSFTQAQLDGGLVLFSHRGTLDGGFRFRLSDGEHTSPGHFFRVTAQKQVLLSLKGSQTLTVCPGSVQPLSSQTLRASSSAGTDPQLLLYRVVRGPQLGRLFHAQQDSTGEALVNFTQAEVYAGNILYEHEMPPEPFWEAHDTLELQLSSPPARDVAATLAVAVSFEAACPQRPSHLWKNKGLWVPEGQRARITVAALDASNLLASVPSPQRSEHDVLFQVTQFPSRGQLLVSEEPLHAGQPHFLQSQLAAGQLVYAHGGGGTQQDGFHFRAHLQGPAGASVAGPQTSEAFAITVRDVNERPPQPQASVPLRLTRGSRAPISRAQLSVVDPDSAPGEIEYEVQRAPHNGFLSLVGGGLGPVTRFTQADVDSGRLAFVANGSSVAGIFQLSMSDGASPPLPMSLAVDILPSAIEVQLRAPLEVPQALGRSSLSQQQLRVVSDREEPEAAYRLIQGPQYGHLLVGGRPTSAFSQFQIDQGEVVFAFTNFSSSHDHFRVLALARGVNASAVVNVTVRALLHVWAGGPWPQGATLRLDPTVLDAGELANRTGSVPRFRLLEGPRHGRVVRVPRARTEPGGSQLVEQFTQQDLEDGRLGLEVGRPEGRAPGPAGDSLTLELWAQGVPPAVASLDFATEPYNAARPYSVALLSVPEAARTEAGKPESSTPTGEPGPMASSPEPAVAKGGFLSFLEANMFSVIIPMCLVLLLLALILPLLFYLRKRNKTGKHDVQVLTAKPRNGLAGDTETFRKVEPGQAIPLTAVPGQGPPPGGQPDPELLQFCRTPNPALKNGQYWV

B1: 2+1 IgG Crossfab; VH/VL exchange (LC007/V9), anti-MCSP/anti-huCD3 (bispecific antibody)
chain 1: not shown
chain 2: DIVLTQSPSSLSASLGDRVTISCSASQGIRNYLNWYQQRPDGTVKLLIYYTSSLHSGVPSRFSGSGSGTDYSLTISNLEPEDIATYYCQQYSKLPWTFGGGTKLEIKRTVAAPSVFIFPPSDEQLKSGTASVVCLLNNFYPREAKVQWKVDNALQSGNSQESVTEQDSKDSTYSLSSTLTLSKADYEKHKVYACEVTHQGLSSPVTKSFNRGEC
chain 3: DIQMTQSPSSLSASVGDRVTITCRASQDIRNYLNWYQQKPGKAPKLLIYYTSRLESGVPSRFSGSGSGTDYTLTISSLQPEDFATYYCQQGNTLPWTFGQGTKVEIKSSASTKGPSVFPLAPSSKSTSGGTAALGCLVKDYFPEPVTVSWNSGALTSGVHTFPAVLQSSGLYSLSSVVTVPSSSLGTQTYICNVNHKPSNTKVDKKVEPKSCGGGGSGGGGSEVQLQESGPGLVKPSQSLSLTCSVTGYSITSGYYWNWIRQFPGNKLEWMGYITYDGSNNYNPSLKNRISITRDTSKNQFFLKLNSVTTEDTATYYCADFDYWGQGTTLTVSSASTKGPSVFPLAPSSKSTSGGTAALGCLVKDYFPEPVTVSWNSGALTSGVHTFPAVLQSSGLYSLSSVVTVPSSSLGTQTYICNVNHKPSNTKVDKKVEPKSCDKTHTCPPCPAPEAAGGPSVFLFPPKPKDTLMISRTPEVTCVVVDVSHEDPEVKFNWYVDGVEVHNAKTKPREEQYNSTYRVVSVLTVLHQDWLNGKEYKCKVSNKALGAPIEKTISKAKGQPREPQVCTLPPSRDELTKNQVSLSCAVKGFYPSDIAVEWESNGQPENNYKTTPPVLDSDGSFFLVSKLTVDKSRWQQGNVFSCSVMHEALHNHYTQKSLSLSPGK
chain 4: EVQLVESGGGLVQPGGSLRLSCAASGYSFTGYTMNWVRQAPGKGLEWVALINPYKGVSTYNQKFKDRFTISVDKSKNTAYLQMNSLRAEDTAVYYCARSGYYGDSDWYFDVWGQGTLVTVSSASVAAPSVFIFPPSDEQLKSGTASVVCLLNNFYPREAKVQWKVDNALQSGNSQESVTEQDSKDSTYSLSSTLTLSKADYEKHKVYACEVTHQGLSSPVTKSFNRGEC
[1]
  EC50 of T cell-mediated killing (LDH release) of MV-3 cells, human PBMCs, 21 h: 9.2 pM
  EC50 of T cell-mediated killing (LDH release) of WM266-4 cells, human PBMCs, 21 h: 33.1 pM
[2]
  EC50 [pM] of T cell-mediated killing (LDH release) of MV-3 cells, human PBMCs, about 24 h: 10 pM
  EC50 [pM] of T cell-mediated killing (LDH release) of WM266-4 cells, human PBMCs, about 24 h: 12.4 pM

B2: 2+1 IgG Crossfab; CL/CH1 exchange (LC007/anti-CD3), anti-MCSP/anti-huCD3 (bispecific antibody)
chain 1: B1 chain 2
chain 2: EVQLQESGPGLVKPSQSLSLTCSVTGYSITSGYYWNWIRQFPGNKLEWMGYITYDGSNNYNPSLKNRISITRDTSKNQFFLKLNSVTTEDTATYYCADFDYWGQGTTLTVSSASTKGPSVFPLAPSSKSTSGGTAALGCLVKDYFPEPVTVSWNSGALTSGVHTFPAVLQSSGLYSLSSVVTVPSSSLGTQTYICNVNHKPSNTKVDKKVEPKSCDKTHTCPPCPAPEAAGGPSVFLFPPKPKDTLMISRTPEVTCVVVDVSHEDPEVKFNWYVDGVEVHNAKTKPREEQYNSTYRVVSVLTVLHQDWLNGKEYKCKVSNKALGAPIEKTISKAKGQPREPQVCTLPPSRDELTKNQVSLSCAVKGFYPSDIAVEWESNGQPENNYKTTPPVLDSDGSFFLVSKLTVDKSRWQQGNVFSCSVMHEALHNHYTQKSLSLSPGK
chain 3: QAVVTQESALTTSPGETVTLTCRSSTGAVTTSNYANWVQEKPDHLFTGLIGGTNKRAPGVPARFSGSLIGDKAALTITGAQTEDEAIYFCALWYSNLWVFGGGTKLTVLSSASTKGPSVFPLAPSSKSTSGGTAALGCLVKDYFPEPVTVSWNSGALTSGVHTFPAVLQSSGLYSLSSVVTVPSSSLGTQTYICNVNHKPSNTKVDKKVEPKSC
chain 4: not shown
[2]
  EC50 [pM] of T cell-mediated killing (LDH release) of MV-3 cells, human PBMCs, about 24 h: 11 pM
  EC50 [pM] of T cell-mediated killing (LDH release) of WM266-4 cells, human PBMCs, about 24 h: 11.3 pM

B3: 2+1 IgG Crossfab, inverted; CL/CH1 exchange (LC007/anti-CD3), anti-MCSP/anti-huCD3 (bispecific antibody)
chain 1: B1 chain 2
chain 2: B2 chain 2
chain 3: B2 chain 3
chain 4: not shown
[2]
  EC50 [pM] of T cell-mediated killing (LDH release) of MV-3 cells, human PBMCs, about 24 h: 3 pM
  EC50 [pM] of T cell-mediated killing (LDH release) of WM266-4 cells, human PBMCs, about 24 h: 7.1 pM

B4: 2+1 IgG Crossfab; VL/VH exchange (M4-3 ML2/V9), anti-MCSP/anti-huCD3 (bispecific antibody)
chain 1: B1 chain 4
chain 2: not shown
chain 3: not shown
chain 4: QVQLQESGPGLVKPSQTLSLTCTVSGGSITSGYYWNWIRQHPGKGLEWIGYITYDGSNNYNPSLKSRVTISRDTSKNQFSLKLSSVTAADTAVYYCADFDYWGQGTLVTVSSASTKGPSVFPLAPSSKSTSGGTAALGCLVKDYFPEPVTVSWNSGALTSGVHTFPAVLQSSGLYSLSSVVTVPSSSLGTQTYICNVNHKPSNTKVDKKVEPKSCDKTHTCPPCPAPEAAGGPSVFLFPPKPKDTLMISRTPEVTCVVVDVSHEDPEVKFNWYVDGVEVHNAKTKPREEQYNSTYRVVSVLTVLHQDWLNGKEYKCKVSNKALGAPIEKTISKAKGQPREPQVCTLPPSRDELTKNQVSLSCAVKGFYPSDIAVEWESNGQPENNYKTTPPVLDSDGSFFLVSKLTVDKSRWQQGNVFSCSVMHEALHNHYTQKSLSLSPGK
[1]
  EC50 of T cell-mediated killing (LDH release) of MV-3 cells, human PBMCs, 27 h: ~82.2 pM
  EC50 of T cell-mediated killing (LDH release) of WM266-4 cells, human PBMCs, 26 h: 16.8 pM

B5: 2+1 IgG Crossfab, inverted; CL/CH1 exchange (CH1A1A/V9), anti-CEA/anti-huCD3 (bispecific antibody)
chain 1: QVQLVQSGAEVKKPGASVKVSCKASGYTFTEFGMNWVRQAPGQGLEWMGWINTKTGEATYVEEFKGRVTFTTDTSTSTAYMELRSLRSDDTAVYYCARWDFAYYVEAMDYWGQGTTVTVSSASTKGPSVFPLAPSSKSTSGGTAALGCLVKDYFPEPVTVSWNSGALTSGVHTFPAVLQSSGLYSLSSVVTVPSSSLGTQTYICNVNHKPSNTKVDKKVEPKSCDKTHTCPPCPAPEAAGGPSVFLFPPKPKDTLMISRTPEVTCVVVDVSHEDPEVKFNWYVDGVEVHNAKTKPREEQYNSTYRVVSVLTVLHQDWLNGKEYKCKVSNKALGAPIEKTISKAKGQPREPQVCTLPPSRDELTKNQVSLSCAVKGFYPSDIAVEWESNGQPENNYKTTPPVLDSDGSFFLVSKLTVDKSRWQQGNVFSCSVMHEALHNHYTQKSLSLSPGK
chain 2: DIQMTQSPSSLSASVGDRVTITCKASAAVGTYVAWYQQKPGKAPKLLIYSASYRKRGVPSRFSGSGSGTDFTLTISSLQPEDFATYYCHQYYTYPLFTFGQGTKLEIKRTVAAPSVFIFPPSDEQLKSGTASVVCLLNNFYPREAKVQWKVDNALQSGNSQESVTEQDSKDSTYSLSSTLTLSKADYEKHKVYACEVTHQGLSSPVTKSFNRGEC
chain 3: DIQMTQSPSSLSASVGDRVTITCRASQDIRNYLNWYQQKPGKAPKLLIYYTSRLESGVPSRFSGSGSGTDYTLTISSLQPEDFATYYCQQGNTLPWTFGQGTKVEIKSSASTKGPSVFPLAPSSKSTSGGTAALGCLVKDYFPEPVTVSWNSGALTSGVHTFPAVLQSSGLYSLSSVVTVPSSSLGTQTYICNVNHKPSNTKVDKKVEPKSC
chain 4: not shown
[3]
  EC50 of T cell-mediated killing (LDH release) of LS-174T cells, human PBMCs, 28 h: 673 pM
  EC50 of T cell-mediated killing (LDH release) of MKN-45 cells, human PBMCs, 28 h: 115 pM

B6: 2+1 IgG Crossfab; CL/CH1 exchange (M4-3 ML2/V9), anti-MCSP/anti-huCD3 (bispecific antibody)
chain 1: B5 chain 3
chain 2: not shown
chain 3: B4 chain 4
chain 4: not shown
[1]
  EC50 of T cell-mediated killing (LDH release) of MV-3 cells, human PBMCs, 27 h: ~11.7 pM
  EC50 of T cell-mediated killing (LDH release) of WM266-4 cells, human PBMCs, 26 h: 12.9 pM

B7: 2+1 IgG Crossfab, inverted; CL/CH1 exchange (LC007/V9), anti-MCSP/anti-huCD3 (bispecific antibody)
chain 1: B1 chain 2
chain 2: B2 chain 2
chain 3: B5 chain 3
chain 4: not shown
[2]
  EC50 [pM] of T cell-mediated killing (LDH release) of MV-3 cells, human PBMCs, about 24 h: 4.1 pM
  EC50 [pM] of T cell-mediated killing (LDH release) of WM266-4 cells, human PBMCs, about 24 h: 3.7 pM

B8: 1+1 CrossMab; CL/CH1 exchange (LC007/V9), anti-MCSP/anti-huCD3 (bispecific antibody, human IgG1, kappa, L234A L235A)
chain 1: B1 chain 2
chain 2: B2 chain 2
chain 3: B5 chain 3
chain 4: not shown
[1]
  EC50 of T cell-mediated killing (LDH release) of MV-3 cells, human PBMCs, 21 h: 88.4 pM
  EC50 of T cell-mediated killing (LDH release) of WM266-4 cells, human PBMCs, 21 h: 53.9 pM
